Laboratory results: paper PMC4964977 (Biochemical Journal, 2016)
Square brackets hold non-standard residues; d marks the D form. Ends that are not written are not given here. * marks the point of attachment. Biotin = O=C1N[C@H]2[C@H](CS[C@H]2CCCCC(=O)*)N1; pS = N[C@@H](COP(=O)(O)O)C(=O)O

T1: PLM 20-mer RCKFNQQQRTGEPDEEEGTF (R41–F60), on membrane (mouse, covalently linked to the membrane)
T1 peptide: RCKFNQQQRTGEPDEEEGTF

T2: native NCX1(301–320) peptide synthesized on membrane (rat, covalently linked to the membrane)
T2 peptide: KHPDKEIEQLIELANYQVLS


Columns and labels:
[1] = target: T1, PLM 20-mer RCKFNQQQRTGEPDEEEGTF …; experiment: peptide or protein array
[2] = target: T2, native NCX1(301–320) peptide …; experiment: peptide or protein array

Row | Binder | binding result [1] | binding result [2]
1 | Biotin-ARILKELKQKHPDKEIEQLI [biotin–NCX1(292–311)] | binds | 
2 | Biotin-KRCRCKFNQQQRTGEPDEEEGTFRSSIRRL[pS]SRRR (cysteine pairing not given here) [biotin–pSer68-PLMcyt] |  | binds

Now from value to binder:

Row | binding result [1] | binding result [2] | Binder
3 | binds |  | Biotin-KQRGMIIEHEGDRPASKTEI [biotin–NCX1(235–254)]
4 | binds |  | Biotin-KHPDKEIEQLIELANYQVLS [biotin–NCX1(301–320)]
